# Measured values published in US10925971B2, “Methods of treating PRLR positive breast cancer” (Regeneron Pharmaceuticals, Inc., priority 2016, dated 2021).
# B1: H1H6958N2-DM1: anti-PRLR antibody H1H6958N2 conjugated to the maytansinoid DM1 through an SMCC linker (conjugate)
# VH: QVQLVESGGGVVQPGRSLRLSCGASGFTFRNYGMQWVRQGPGKGLEWVTLISFDGNDKYYADSVKGRFTISRDNSKNTLFLQMNSLRTEDTAVYYCARGGDFDYWGQGTLVTVSS
# VL: DIQMTQSPSSLSASVGDRVTITCRASQDIRKDLGWYQQKPGKAPKRLIYAASSLHSGVPSRFSGSGSGTEFTLTISSLQPEDFATYYCLQHNSYPMYTFGQGTKLEIK
# B2: H1H6958N2: anti-PRLR antibody, receptor blocking, human IgG1 Fc form of H2M6958N2 of Table 1; HCVR/LCVR SEQ ID NOs 290/298 (antibody, V domains shown)
# VH: QVQLVESGGGVVQPGRSLRLSCGASGFTFRNYGMQWVRQGPGKGLEWVTLISFDGNDKYYADSVKGRFTISRDNSKNTLFLQMNSLRTEDTAVYYCARGGDFDYWGQGTLVTVSS
# VL: DIQMTQSPSSLSASVGDRVTITCRASQDIRKDLGWYQQKPGKAPKRLIYAASSLHSGVPSRFSGSGSGTEFTLTISSLQPEDFATYYCLQHNSYPMYTFGQGTKLEIK
# How the values were obtained:
# [1] = test system: HEK293 (293) cells; experiment: In vitro cell viability (cell kill) assay, CCK8; assay type: cell-based, human
# Outline: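 Three-day exposure to DM1-conjugated anti-PRLR antibodies or DM1-SMe, 500 nM down to 5 pM, in cells engineered to express human PRLR. Surviving cells are quantified by CCK8 absorbance or by imaged Hoechst nuclear counts, relative to untreated wells.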
# [2] = test system: PC3 cells; experiment: In vitro cell viability (cell kill) assay, CCK8; assay type: cell-based, human; conditions: Table 18
# Outline: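 Cells stably overexpressing human PRLR (transfected or lentiviral, FACS-enriched) were treated for 3 days with anti-PRLR-SMCC-DM1 ADCs or free DM1-SMe at 500 nM to 5 pM. HEK293 and PC3 viability was read by CCK8 OD450; MCF7 by Hoechst nuclear counts. Digitonin background subtracted; % of untreated; IC50 from 10-point four-parameter fit.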
# [3] = test system: T47D cells; experiment: In vitro cell viability (cell kill) assay, CCK8; assay type: cell-based, human; conditions: T47D cells (PRLR 12× above background), 3 days; read-out: IC50, growth inhibition / cell viability
# Outline: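 T47D cells grown overnight, then exposed for 3 days to anti-PRLR-DM1 ADCs (SMCC non-cleavable linker) or DM1-SMe at 500 nM to 5 pM.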
# [4] = test system: T47Dv11 tumors; experiment: T47Dv11 breast tumor xenograft, single agent and combination with fulvestrant; assay type: in vivo, C.B.-17 SCID mice
# Description: The T47Dv11 model was used to assess the activity of H1H6958N2-DM1 in a model with significant levels of endogenous PRLR. […] Initially, 10×10^6 parental T47D cells were implanted subcutaneously (SC) into the left flank of female C.B.-17 SCID mice (Taconic, Hudson N.Y.). Tumors were supplemented with a 90-day release 1.7 mg estrogen pellet (Innovative Research America). Where T47D tumors were observed, they were excised and cut into 3 mm fragments and subsequently implanted into the left flank of separate female C.B.-17 SCID mice. Subsequent passaging was performed until a large tumor was disaggregated into a single cell suspension. The cells (named T47Dv11) from this tumor were then cultured in vitro and expanded. […] For efficacy studies, mice were implanted with 7.5×10^6 T47Dv11 cells into the left flank of female C.B.-17 SCID mice supplemented with a 90-day release 0.72 mg/pellet estrogen pellet. For MCF7 and MCF7/PRLR tumor xenografts, 2×10^7 MCF7/PRLR cells were implanted SC into the left mammary fat pad of female NCr nude mice (7-8 weeks old) supplemented with 90-day release 0.72 mg/pellet estrogen pellets. Tumors were measured with calipers twice a week for the duration of each study. Tumor volume was calculated using the formula TV=(length×width^2)/2.
# After T47Dv11 tumors reached an average volume of ˜150-200 mm^3 (14-16 days post implantation), mice were randomized into treatment groups (n=8-9 mice/group) and received a single dose or three once-weekly doses of H1H6958N2-DM1, control ADC, or vehicle control, administered systemically by intravenous tail-vein injection. […] Tumor size and body weight were measured in vivo twice per week throughout the duration of the study.
# Next, the combination of H1H6958N2-DM1 with the SERD fulvestrant was tested in the T47Dv11 xenograft model. Here, the activity of either agent at partially effective doses was compared against the activity of the agents in combination. First, a dose titration study of weekly administration of fulvestrant was performed in order to establish its single agent activity (FIG. 4).
# For the subcutaneous tumors, average tumor size as well as tumor growth inhibition relative to the Vehicle treated group were calculated for each group. Tumors were measured with calipers twice a week until the average size of the vehicle group reached 1200 mm^3. Tumor size was calculated using the formula (length×width^2)/2. For all studies, tumor growth inhibition was calculated according to the following formula: (1−((Tfinal−Tinitial)/(Cfinal−Cinitial)))*100, where T (treated group) and C (control group) represent the mean tumor mass on the day the vehicle group reached 1000 mm^3.
Molecule,"% Kill ([1]; 293, Table 11, 3 days)","IC50 ([1]; 293, Table 11, 3 days)","% Kill ([1]; HEK293, Table 13, + 15 nM PRL)","IC50 ([1]; HEK293, Table 13, + 15 nM PRL)",% Kill [2],IC50 [2],IC50 [3],"Final Tumor Volume (mean ± SD) ([4]; T47DvII tumors in SCID mice, Day 70, 2.5 mg/kg)","anti-tumor activity ([4]; combination study, individual treatment 2.5 mg/kg single dose)",tumor growth ([4]; single dose 2.5 or 5 mg/kg),tumor growth ([4]; three doses of 5 or 15 mg/kg),"tumor growth, controls ([4]; T47Dv11 model, dose not stated)"
B1,98%,75 nM,86%,110 nM,81%,110 nM,1.3 nM,386 ± 249 mm^3,Significant anti-tumor activity,significantly inhibited tumor growth,tumor regression,–
B2,–,–,–,–,–,–,–,–,–,–,–,no effect on tumor growth
